According to patent US20070015228A1:

Target: normal human IgG (Zymed) (human)
Experiment: ELISA, 8A3 coated on plate, anti-human IgG Fc-HRP detection

B1: anti-idiotypic antibody 8A3 (antibody, V domains shown)
VH: QVQLQQSGAELAKPGASVKMSCKASGYNFTTYWMHWVKQRPGQGLEWIGYINPSTDYTEYNQKFKYKATLTADKSSSTAYIQLSSLTSEDSAVYYCARWWDYDWYFDVWGAGTPLTVSS
VL: DIVMTQSQEFMSTSVGDRVSVTCKASQTVDTNVAWYQQKLGQSPKPLIYSASYRCSGVPDRFTGSGSRTDFTLTITNVQSEDLAEYFCQQYHSFPWTFGGGTKVEIKR
For B1, the fold (binding to normal human IgG against humanized anti-CD20 IgG) was less than 50000 fold.
